According to the Immune Epitope Database (IEDB):

Assays:
HLA-A*03:01 = experiment: IEDB peptide-MHC binding, purified MHC/competitive/radioactivity; filed as Kd, often an IC50 or EC50 that approximates it; ≥ and ≤ were set here for values at or beyond the usual limits of such assays
HLA-A*30:01 = experiment: as above
HLA-A*11:01 = experiment: as above; settings: source organism: SARS coronavirus Tor2
HLA-A*30:02 = experiment: as above
HLA-A*24:02 = experiment: as above
HLA-A*23:01 = experiment: as above
HLA-A*01:01 = experiment: as above
HLA-A*29:02 = experiment: as above
HLA-A*31:01 = experiment: as above; settings: source organism: SARS coronavirus Tor2
HLA-A*68:01 = experiment: as above; settings: source organism: SARS coronavirus Tor2
HLA-A*33:01 = experiment: as above; settings: source organism: SARS coronavirus Tor2
HLA-A*26:01 = experiment: as above
HLA-A*69:01 = experiment: IEDB peptide-MHC binding, purified MHC/direct/fluorescence; filed as Kd, often an IC50 or EC50 that approximates it; ≥ and ≤ were set here for values at or beyond the usual limits of such assays
HLA-A*02:01 = experiment: as above
HLA-B*44:02 = experiment: IEDB peptide-MHC binding, purified MHC/competitive/radioactivity; filed as Kd, often an IC50 or EC50 that approximates it; ≥ and ≤ were set here for values at or beyond the usual limits of such assays
HLA-B*15:01 = experiment: IEDB peptide-MHC binding, purified MHC/direct/fluorescence; filed as Kd, often an IC50 or EC50 that approximates it; ≥ and ≤ were set here for values at or beyond the usual limits of such assays; settings: source organism: Mammarenavirus juninense
HLA-A*02:06 = experiment: IEDB peptide-MHC binding, purified MHC/competitive/radioactivity; filed as Kd, often an IC50 or EC50 that approximates it; ≥ and ≤ were set here for values at or beyond the usual limits of such assays; settings: source organism: Dengue virus 4 Philippines/H241/1956
[1] = source organism: Dengue virus 1 Brazil/97-11/1997
[2] = source organism: SARS coronavirus Tor2
[3] = source organism: Dengue virus 2 Jamaica/1409/1983
[4] = source organism: Serratia proteamaculans
[5] = source organism: Mammarenavirus guanaritoense
[6] = source organism: Dengue virus 3 Martinique/1243/1999
[7] = source organism: Vaccinia virus WR
[8] = source organism: Lassa virus Josiah
[9] = source organism: Lymphocytic choriomeningitis virus (strain Armstrong)
[10] = source organism: Mammarenavirus juninense
[11] = source organism: Dengue virus 4 Philippines/H241/1956
[12] = source organism: Salmonella enterica subsp. enterica serovar Paratyphi A
[13] = source organism: Encephalitozoon cuniculi

Sequence VVRVQRPAK has a Kd (HLA-A*03:01; [1]) of 126 nM and a Kd (HLA-A*30:01; [1]) of 22.4 nM.

Work on TVAYFNMVY yielded a Kd (HLA-A*11:01) of 60.5 nM, a Kd (HLA-A*30:02; [2]) of 71 nM and a Kd (HLA-A*24:02; [2]) of 11000 nM. For the same sequence, the Kd (HLA-A*03:01; [2]) was 41.3 nM, the Kd (HLA-A*23:01; [2]) was 14100 nM and the Kd (HLA-A*01:01; [2]) was 123 nM. For the same sequence, the Kd (HLA-A*29:02; [2]) was 3.81 nM, the Kd (HLA-A*31:01) was at least 56900 nM and the Kd (HLA-A*68:01) was 75.9 nM. The Kd (HLA-A*33:01) was at least 52000 nM and the Kd (HLA-A*26:01; [2]) was 14.2 nM.

MWHVTRGAVL showed a Kd (HLA-A*24:02; [3]) of 1690 nM and a Kd (HLA-A*23:01; [3]) of 1460 nM.

With LCANEYTGNY the Kd (HLA-A*30:02; [2]) was 80.4 nM, the Kd (HLA-A*24:02; [2]) was at least 70300 nM and the Kd (HLA-A*23:01; [2]) was at least 70000 nM. The Kd (HLA-A*01:01; [2]) was 445 nM, the Kd (HLA-A*29:02; [2]) was 98.3 nM and the Kd (HLA-A*26:01; [2]) was at least 29900 nM.

With LFSGVSWTM the Kd (HLA-A*24:02; [1]) was 449 nM.

In the case of GMPNWCVSI, the Kd (HLA-A*69:01; [4]) is reported as 3410 nM and the Kd (HLA-A*02:01; [4]) is reported as 24.7 nM.

Sequence HWPKSHTLW has a Kd (HLA-A*24:02; [3]) of 1170 nM.

CGSVGFNIDY was tested, and the Kd (HLA-A*30:02; [2]) was 371 nM, the Kd (HLA-A*24:02; [2]) was at least 70300 nM and the Kd (HLA-A*23:01; [2]) was at least 70000 nM. The Kd (HLA-A*01:01; [2]) was 7300 nM, the Kd (HLA-A*29:02; [2]) was 774 nM and the Kd (HLA-A*26:01; [2]) was at least 20700 nM.

In the case of TNSVIIMAY, the Kd (HLA-A*30:02; [2]) is reported as 2120 nM, the Kd (HLA-A*24:02; [2]) is reported as at least 77600 nM and the Kd (HLA-A*23:01; [2]) is reported as at least 77800 nM. For the same sequence, the Kd (HLA-A*01:01; [2]) was at least 25800 nM, the Kd (HLA-A*29:02; [2]) was 84.5 nM and the Kd (HLA-A*26:01; [2]) was 17300 nM.

Work on NFGTFYEHI yielded a Kd (HLA-A*24:02; [5]) of 1950 nM, a Kd (HLA-A*23:01; [5]) of 451 nM and a Kd (HLA-A*29:02; [5]) of 400 nM.

With GDNALKINW the Kd (HLA-B*44:02; [6]) was 150 nM.

For LLFLPKAAY, the Kd (HLA-B*15:01) was 99.4 nM.

In the case of FSNSGADVLY, the Kd (HLA-A*30:02; [2]) is reported as 9.14 nM, the Kd (HLA-A*24:02; [2]) is reported as at least 70300 nM and the Kd (HLA-A*23:01; [2]) is reported as at least 70000 nM. The Kd (HLA-A*01:01; [2]) was 15.3 nM, the Kd (HLA-A*29:02; [2]) was 74.9 nM and the Kd (HLA-A*26:01; [2]) was 3560 nM.

Work on QSDTVFDYY yielded a Kd (HLA-A*24:02; [7]) of at least 72700 nM and a Kd (HLA-A*23:01; [7]) of at least 32500 nM.

Work on LDEWSVATFY yielded a Kd (HLA-A*30:02; [2]) of 495 nM, a Kd (HLA-A*24:02; [2]) of at least 32900 nM and a Kd (HLA-A*23:01; [2]) of at least 47900 nM. For the same sequence, the Kd (HLA-A*01:01; [2]) was 2380 nM, the Kd (HLA-A*29:02; [2]) was 95.2 nM and the Kd (HLA-A*26:01; [2]) was at least 21400 nM.

Work on YQPSSGCYI yielded a Kd (HLA-A*24:02; [8]) of 7220 nM, a Kd (HLA-A*23:01; [8]) of 5410 nM and a Kd (HLA-A*29:02; [8]) of 14500 nM.

Sequence ALPPPPPPP has a Kd (HLA-A*02:01; source organism: Homo sapiens) of 12700 nM.

RYQVVECKEV was tested, and the Kd (HLA-A*30:02; [9]) was 159 nM, the Kd (HLA-A*24:02; [9]) was at least 70300 nM and the Kd (HLA-A*23:01; [9]) was at least 70000 nM. The Kd (HLA-A*01:01; [9]) was at least 70400 nM, the Kd (HLA-A*29:02; [9]) was at least 71400 nM and the Kd (HLA-A*26:01; [9]) was at least 69700 nM.

LFQFFVFLV gave a Kd (HLA-A*30:02; [10]) of 986 nM, a Kd (HLA-A*24:02; [10]) of 18800 nM and a Kd (HLA-A*23:01; [10]) of 15700 nM. The Kd (HLA-A*01:01; [10]) was 531 nM, the Kd (HLA-A*29:02; [10]) was 437 nM and the Kd (HLA-A*26:01; [10]) was at least 57200 nM.

Sequence FSSRMYCSFY has a Kd (HLA-A*30:02; [2]) of 2.15 nM, a Kd (HLA-A*24:02; [2]) of at least 43100 nM and a Kd (HLA-A*23:01; [2]) of at least 42400 nM. For the same sequence, the Kd (HLA-A*01:01; [2]) was 2.72 nM, the Kd (HLA-A*29:02; [2]) was 40.2 nM and the Kd (HLA-A*26:01; [2]) was 23 nM.

Sequence RTIMAVLFV has a Kd (HLA-A*02:06) of 19.4 nM and a Kd (HLA-A*30:01; [11]) of 135 nM.

With TWLVHKQWF the Kd (HLA-A*24:02; [11]) was 302 nM and the Kd (HLA-A*23:01; [11]) was 282 nM.

NEWITDFAG showed a Kd (HLA-B*44:02; [6]) of 6550 nM.

RYMGEDGCWY gave a Kd (HLA-A*30:02; [6]) of at least 69700 nM and a Kd (HLA-A*24:02; [6]) of 828 nM.

AQLPRWVAT gave a Kd (HLA-A*69:01; [12]) of 7000 nM and a Kd (HLA-A*02:01; [12]) of 19900 nM.

Work on KYKYFSGAL yielded a Kd (HLA-A*30:02; [2]) of at least 44600 nM, a Kd (HLA-A*24:02; [2]) of at least 25700 nM and a Kd (HLA-A*23:01; [2]) of 15000 nM. The Kd (HLA-A*01:01; [2]) was at least 78100 nM, the Kd (HLA-A*29:02; [2]) was at least 25000 nM and the Kd (HLA-A*26:01; [2]) was at least 75500 nM.

Sequence LFHAFFGAL has a Kd (HLA-A*24:02; [5]) of at least 31900 nM, a Kd (HLA-A*23:01; [5]) of 12500 nM and a Kd (HLA-A*29:02; [5]) of 3650 nM.

With KEMAETQHG the Kd (HLA-B*44:02; [11]) was 143 nM.

For KMYEYVFKG, the Kd (HLA-A*69:01; [13]) was at least 20000 nM and the Kd (HLA-A*02:01; [13]) was 40.4 nM.

For FFFVYENAF, the Kd (HLA-A*30:02; [2]) was at least 96800 nM, the Kd (HLA-A*24:02; [2]) was at least 60400 nM and the Kd (HLA-A*23:01; [2]) was at least 24000 nM. For the same sequence, the Kd (HLA-A*01:01; [2]) was 2670 nM, the Kd (HLA-A*29:02; [2]) was at least 23900 nM and the Kd (HLA-A*26:01; [2]) was 9240 nM.
